Measured values as given in the supplement of paper PMC9170038.

Test system: MS2 coat protein
Assay: apparent KD of MS2 coat protein; designed switch direction (-1 OFF switch, 1 ON switch): -1; higher = weaker reporter binding
How it was run: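 Stalled E. coli RNA polymerase transcribed designed RNA switches on Illumina chips, which were then titrated with SNAP-549-labelled MS2 coat protein, doubling from 0.7 or 1.5 nM to 3 µM. Steps lasted from 0.8–1.5 h at the lowest concentration to 10–20 min at the highest. The apparent KD is each design's median over clusters of curve-fitted normalised fluorescence.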

[1] = Eterna round: R95, input ligand: FMN 200 uM
[2] = Eterna round: R95, input ligand: microRNA oligo, concentration not stated
[3] = Eterna round: R95, input ligand: none
[4] = input ligand: microRNA oligo, concentration not stated

| Sequence | apparent KD of MS2 coat protein [1] | apparent KD of MS2 coat protein [2] | apparent KD of MS2 coat protein [3] | apparent KD of MS2 coat protein (input ligand: FMN 200 uM) | apparent KD of MS2 coat protein [4] | apparent KD of MS2 coat protein (input ligand: none) |
| --- | --- | --- | --- | --- | --- | --- |
| GUUAAGUGAGGAUAUGGUAAAUUAAUUAUUAAUUAAUUAAUCCAGAAGGCACAUGAGGAUCACCCAUGUAAAUG [Mat - Exclusion 4 - D87] (puzzle: Exclusion 4) | 0.0546 µM | 0.0305 µM | 0.0315 µM |  |  |  |
| AAUGAUGAUGUGAGGAUAUACAUAGUUAGACCGUAGUAGAAGGCACAUGAGGAUCACCCAUGUAGAUGUUAGGU [JR_BME4_Sub003] (puzzle: Brourd's mod of Exclusion 4) | 0.0215 µM | 0.0129 µM | 0.0144 µM |  |  |  |
| ACAUGAGGAUCACCCAUGUGGACGUAAUGGCUCAUGUAGAGUGAGGAUAUGUGAGACGAACGAGAACAGAAGGCACAAGACAGG [Deportation 7 - Jieux - Exclusion NG 3] (Eterna round: R96, puzzle: Exclusion NG 3) |  |  |  | 0.0263 µM | 0.0145 µM | 0.0221 µM |
| CCGGAACAUGAGGAUCACCCAUGUCAGGAUAUCUCAAAAUCGUCGAUAGACGAUAACAAGAGAAGGGACACCGG [Mat - Exclusion 1 - Eli Mod - D29] (Eterna round: R97, puzzle: Exclusion 1) |  |  |  | 0.0234 µM |  | 0.0208 µM |
| GGGUAGUGAGGAUAUCGUUGUUAGGAGGAGUAGGUAGGAGGCGAGAAGGCACAUGAGGAUCACCCAUGUAUGAA [JR_Exclu4_Sub066] (Eterna round: R96, puzzle: Exclusion 4) |  |  |  | 0.0349 µM | 0.0262 µM | 0.032 µM |
| AAUAUCGUAGGAUAUUAAUACUCAGACAUGAGGAUCACCCAUGUUUGGUGGGUCGGAGAAUGAGAAGGGCGAUGAA [EX5 #15] (Eterna round: R97, puzzle: Exclusion 5) |  |  |  | 0.086 µM |  | 0.0547 µM |
| CCUCCACAUGAGGAUCACCCAUGUGAGGAUAUCCUGCGAGGAUCAAAAGAUCCUCGUGGGAGAAGGCACAUGAA [Omei Ex1 A9] (Eterna round: R97, puzzle: Exclusion 1) |  |  |  | 0.241 µM |  | 0.0393 µM |
| ACUGAACAUGAGGAUCACCCAUGUAAGGAUAUGCCACACGGGCUACAUAGCCAUCAAAGUAGAAGGUGCUGGGA [Eternabot (Original) Solution 15] (Eterna round: R97, puzzle: Exclusion 1) |  |  |  | 0.0203 µM |  | 0.0262 µM |
| AAAUAGCAAGUGUGAUCCUACAUGAGGAUCACCCAUGUGUUCGUCUUAUUUGAAGACAACACAAAAGUGUUGUCUUA [Omei Mir OFFv1 B2] (Eterna round: R97, puzzle: Sensor, turn-off variant 1) |  |  |  | 0.0329 µM |  | 0.0246 µM |
| GCAGAGCAAGGAUAUACAUGAGGAUCACCCAUGUAAUCUGAAAGGAUUGUAUGGCUCUGUAGAAGGUGCGAAAA [Ederxein] (Eterna round: R97, puzzle: Exclusion 3) |  |  |  | 0.0419 µM |  | 0.0227 µM |
| CAUGUCUGAGGAUAUCGUUUUUUGUACAUGAGGAUCACCCAUGUCCUAUUUUUUAUAUUACGAGAAGGCAGUGGAU [JR_E5_Sub091] (puzzle: Exclusion 5) |  | 0.0349 µM |  |  |  |  |
| ACAAGCUUUUUGUUCGUCUUAUAAUAAUAAAUAAAUAUAACAUGAGGAUCACCCAUGUUAAGAAGACAACCUCAUGU [Sesor Array 25 - Jieux - Sensor v3, turn-off variant 2] (puzzle: Sensor v3, turn-off variant 2) | 0.157 µM | 0.606 µM | 0.305 µM |  |  |  |
| ACCAGACAUGAGGAUCACCCAUGUCAGGAUAUUAUUCUACCUGAAGUUCGGGAUUGUGUGAGAAGGGACUGGGA [Eternabot (L2) Solution 86] (Eterna round: R97, puzzle: Exclusion 1) |  |  |  | 0.0174 µM |  | 0.0161 µM |
| GUUGUGUGAGGAUAUGCCUGGCCGUGAGGCCAGAUUGAGUGGCAGAAGGUACAUGAGGAUCACCCAUGUACGGG [salish99_ex4_4_004] (Eterna round: R97, puzzle: Exclusion 4) |  |  |  | 0.0541 µM |  | 0.0244 µM |
| AAAUUGUGAGGAUAUUCGUAGUACUCGGAGACGAGUAUUACGGAGAAGGCACAUGAGGAUCACCCAUGUUCCUU [Mat - Exclusion 4 - JL Mod - D20] (Eterna round: R97, puzzle: Exclusion 4) |  |  |  | 0.0883 µM |  | 0.0163 µM |
| UAUGUGUCAGGAUAUUAGUAGUAAAUAAAUAAAAUUAUUACUGAGAAGGGACAUGAGGAUCACCCAUGUGCCUU [Salish 062 v31] (Eterna round: R97, puzzle: Exclusion 4) |  |  |  | 0.0232 µM |  | 0.0123 µM |
| GACCUUCCUGUAAGGAUAUCCAUGUAUCAAAGCAUGGAGAAGGUACAUGAGGAUCACCCAUGUCACCCGCGUUA (Eterna round: R97, puzzle: Brourd's mod of Exclusion 4) |  |  |  | 0.0177 µM |  | 0.0117 µM |

| Sequence | apparent KD of MS2 coat protein [1] | apparent KD of MS2 coat protein [2] | apparent KD of MS2 coat protein [3] | apparent KD of MS2 coat protein (input ligand: FMN 200 uM) | apparent KD of MS2 coat protein [4] | apparent KD of MS2 coat protein (input ligand: none) |
| --- | --- | --- | --- | --- | --- | --- |
| UACAUGAGGAUCACCCAUGUUUUGUCGUGUAUGGUAUUUAUCUAGGAUAUCAAUGUAUGUAUUUAUGAGAAGGAGAAUAUUAAU [JMF's solution 43] (Eterna round: R96, puzzle: Exclusion NG 3) |  |  |  | 0.0472 µM | 0.0274 µM | 0.0409 µM |
| GCAGCAACUCUAAUCAAAACCACAUGAGGAUCACCCAUGUCUCAGGAUAUGGUCUGGAUUACAGGCCAGAAGGGAGAAAGCUGC [Eli exng3 - 050] (Eterna round: R96, puzzle: Exclusion NG 3) |  |  |  | 0.0133 µM | 0.0106 µM | 0.0194 µM |
| UCGUGAUUAGAGGAUAUAUUUUGAGUCAGAACAAUAGAAGGCUAAACAUGAGGAUCACCCAUGUAUGUGUAAAA [JR_Ex6_Sub063] (Eterna round: R97, puzzle: Exclusion 6) |  |  |  | 0.184 µM |  | 0.0269 µM |
| UAUUCGCGAGGAUAUGCAGUCGAGUCCAUUACGUGUCUGGGACUUGAGGAUCACCCAAGUAGAAGGCGUCUCAU [salish99_ex2_r4_642] (Eterna round: R97, puzzle: Exclusion 2) |  |  |  | 0.124 µM |  | 0.123 µM |
| CUUAGACAUGAGGAUCACCCAUGUGAGGAUAUGAUGCGAUCGUGCUGACAUGAUCGCAUCAGAAGGCACAUAUG [JL-ex1-01 Hyphema Mod2] (Eterna round: R96, puzzle: Exclusion 1) |  |  |  | 0.242 µM | 0.101 µM | 0.115 µM |
| AAAAUACAUGAGGAUCACCCAUGUGAGGAUAUGAGAGUCAACUCGAGAGAGUUGAUUCUCAGAAGGCACAUAAA [JR_Ex1_Sub066] (Eterna round: R97, puzzle: Exclusion 1) |  |  |  | 0.228 µM |  | 0.0537 µM |
| ACAUGAGGAUCACCCAUGUCCGGCUGGUCUGUUCCGGUUGUCGAGGAUAUAGUUCGGUGUUCGCGCUAGAAGGCGGGAGCUGGA [Aenatbe mod 53] (Eterna round: R96, puzzle: Exclusion NG 3) |  |  |  | 0.177 µM | 0.13 µM | 0.157 µM |
| AAUGGCUGAGGAUAUACACUCACGUCUAAAAGGUUCAAAUGACAUGAGGAUCACCCAUGUAGAAGGCAGCCCGA [Regeor] (puzzle: Exclusion 2) |  | 0.0984 µM |  |  |  |  |
| AUGUUGCGAGGAUAUAUAUGGAGGUUAAAAUUUGAUAUGGAACAUGAGGAUCACCCAUGUAGAAGGUGCAUAAC [JR_Ex2_Sub039] (Eterna round: R97, puzzle: Exclusion 2) |  |  |  | 0.155 µM |  | 0.0575 µM |
| GAAAAACAUGAGGAUCACCCAUGUAAGGAUAUGCUGAAAAAACACUGGAAACAGUGCAGCAGAAGGUACAAAAG [Mat - Exclusion 1 - Eli mod - D100] (Eterna round: R96, puzzle: Exclusion 1) |  |  |  |  | 0.0476 µM |  |
| ACAAGCUUAUUGCUCGGGUACAUGAGGAUCACCCAUGUUUGUGAUUAUAGAGAUUGUGUUGACGUGCGCUGCAGGUU [JR_SV3TOV1_Sub078] (puzzle: Sensor v3, turn-off variant 1) | 0.0611 µM | 0.0379 µM | 0.077 µM |  |  |  |
| GGUUAUUGCAAGGAUAUGCUUUUUUGUGAAAUUGCAGAAGGUGCAACAUGAGGAUCACCCAUGUUGGAUGGGUU [JR_E6_Sub017] (puzzle: Exclusion 6) |  | 0.0937 µM |  |  |  |  |
| CGUGUGCAGUAGGAUAUCCAAAUCCUGUGGAUAGGAGAAGGACUGACAUGAGGAUCACCCAUGUGGGUAAAGAC [Velaxediza] (puzzle: Exclusion 6) | 0.0488 µM | 0.0637 µM | 0.0577 µM |  |  |  |
| AAUGUGUGAGGAUAUUAAUUGCAAGCGAAUAGGCUUGUGAUUGAGAAGGCACAUGAGGAUCACCCAUGUUCCAA [JR_Ex4_Sub083] (Eterna round: R97, puzzle: Exclusion 4) |  |  |  | 0.557 µM |  | 0.0386 µM |
| ACAUGUCAUUGAGGAUAUCGCACACAUGAGGAUCACCCAUGUAAACGGAUGCUCAUUAGUGGGUUCGAGAAGGCGAUGUACAUU [Ex NG2 #99] (Eterna round: R96, puzzle: Exclusion NG 2) |  |  |  | 0.0647 µM | 0.0729 µM | 0.0685 µM |
| AUUGAUAUUGAGGAUAUGCUUUUAUUUGAACAAGCAGAAGGCGAUACAUGAGGAUCACCCAUGUUUAUGGAAGU [JR_E6_Sub087] (puzzle: Exclusion 6) | 0.0516 µM | 0.0376 µM | 0.0494 µM |  |  |  |
| AAGAAGUGAGGAUAUGGCCGGGUCCCUGGGUUUGGACCCGGCCAGAAGGCACAUGAGGAUCACCCAUGUAAGAA [Excls4-X] (puzzle: Exclusion 4) |  | 0.0211 µM |  |  |  |  |
